# Data as given in patent US20230094463A1, “ANTIBODIES THAT DISRUPT THE INTERACTION OF GAL3 AND INSULIN RECEPTOR OR INTEGRINS AND METHODS OF USE THEREOF” (TrueBinding, Inc., priority 2019, published 2023).
# Changes are numbered by the printed parent chain. Numbers in names are those of the source.
# B1: 12G5.D7: anti-Gal3 monoclonal antibody (antibody, V domains shown)
# VH: QVQLKQSGAELVRPGASVKLSCKASGYTFTDYYINWVKQRPGQGLEWIARIYPGTGNTDYNEKFKGRATLTAEKSSSTAYMQLSSLTSEDSAVYFCARFAYYYGSGGYFDYWGHGTTLTVSS
# VL: DILMTQSPSSMSVSLGDTVSITCHASQGINSNMGWLQQKPGKSFKGLIYHATNLEDGVPSRFSGSGSGADYSLTISSLESEDFADYYCVQYAQFPPTFGSGTKLEIK
# B2: F846C.1F5: anti-Gal3 antibody (antibody, V domains shown)
# VH: QIQLVQSGPELKKPGETVKISCKASGYTFTNYGMNWVKQAPGKGLKWMGWINTYTGEPSYADDFKGRFAFSLETSASTAYLQINNLKNEDMATYFCARWGGYDGDYYAMDYWGQGTSVTVSS
# VL: NIMMTQSPSSLAVSAGEKVTMSCKSSQSVLYSSNQKNYLAWYQQKPGQSPKLLIYWASTRESGVPDRFTGSGSGTDFTLTISSVQPEDLAVYYCHQYLSSLTFGAGTKLELK
# B3: F846TC.14A2: anti-Gal3 antibody (antibody, V domains shown)
# VH: QIQLVQSGPELKKPGETVKISCKASGYTFTNYGMNWVKQAPGKGLKWMGWINTYTGEPTYAGDLKGRFAFSLETSASTAYLQINNLKNEDTATYFCVRYTMDYWGQGTSVTVSS
# VL: QAVVTQESALTTSPGETVTLTCRSSTGAVTTSNYANWVQEKPDHLFTGLIGGINNRVPGVPARFSGSLIGDKAALTITGAQTEDEAIYFCALWYSNHWVFGGGTKLTVL
# B4: 24D12.2H9: anti-Gal3 monoclonal antibody (antibody, V domains shown)
# VH: QVQLKQSGPGLVQPSQSLSITCTVSGFSLTSYGVHWVRQAPGKGLEWLGVIWSGGSTDYNAAFMSRLSISKDNSKSQVFFKMNSLQADDTAIYYCAKSPDGYDVAWFGYWGQGTLVTVSA
# VL: DIVMTQSHKFMSTSVGDRVSITCKASQDVRTAVAWYQQKPGQSPKLLIYWASTRHTGVPDRFTGSGSGTDFTLTLSNVQSEDLADYFCQQYSSYPWTFGGGTKLEIK
# B5: 2D10.2B2: anti-Gal3 monoclonal antibody (antibody, V domains shown)
# VH: QVQLQQSGPELVKPGASVKISCKASGYTFTDYYINWVKQRPGQGLEWIGWIYPGSNDTKYNEKFKGKATLTVDTSSSTAYMQLGSLTSEDSAVYFCANYFGCSGWFFDVWGTGTTVTVSS
# VL: DIVMTQAAFSNPVTLGTSASISCRSSKSLLHSDGITYLYWYLQRPGQSPQLLIYRMSNLASGVPDRFSGSGSGTDFTLRISRVEAEDVGVYYCAQMIEFPLTFGAGTILELK
# B6: 4A11.2B5: anti-Gal3 monoclonal antibody (antibody, V domains shown)
# VH: QVQLQQSGPELVKPGASVKISCKASGYSFTNYYIHWVKQRPGQGLEWIGWIYPGSGNTNYNEKFKGKATLTADTSSSTTNMQLSSLTSEDSAVYYCSTAPGGFDVWGSGTTVTVSS
# VL: B5 VL with I97L, I108K
# B7: 13G4.2F8: anti-Gal3 monoclonal antibody (antibody, V domains shown)
# VH: QVQLQQPGAELVKPGASVKLSCKASGYTFTSYWMHWVKQRPGQGLEWIGMIHPNSGSTDYNEKFKNKATLNVDKSSSTAYIQLSSLTSEDSAVYYCTRWGIYYYARDYWGQGTTLTVSS
# VL: DIVMTQSQKFMSTSVGERVSITCKASQNVGTNVAWYQQKAGQSLELLIYGASNRHTGVPDRFTGSGSGTDFTLTITNVQSEDMTNYFCEQYSNFPLTFGAGTKLELK
# Tests used:
# [1] = target: T1, human Gal3 (Homo sapiens, UniProt P17931); assay: Antibody binning assays (competition for binding to Gal3); conditions: binning per Examples 3 and 18
# T1 construct: His; purchased AcroBio GA3-H5129
# T1 sequence (P17931 whole entry): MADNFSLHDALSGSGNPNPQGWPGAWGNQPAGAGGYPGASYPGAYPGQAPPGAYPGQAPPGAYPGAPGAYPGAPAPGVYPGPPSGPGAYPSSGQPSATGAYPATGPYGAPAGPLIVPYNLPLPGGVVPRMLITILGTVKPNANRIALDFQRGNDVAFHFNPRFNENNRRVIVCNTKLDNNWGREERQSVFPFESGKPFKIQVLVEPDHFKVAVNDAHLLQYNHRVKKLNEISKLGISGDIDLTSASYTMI
# Description: To determine whether Gal3-binding antibodies with Gal3-INSR blocking activity bind to the same or overlapping regions of the Gal3 molecule, antibody binning assays were performed to assess the ability of antibodies to simultaneously bind Gal3. Amine-reactive probes were loaded onto a Gator biosensor (Probe Life, Palo Alto, Calif.), equilibrated in dH20 for 60 seconds, dipped into 100 μl EDC 0.2M/NHS 0.05M activation buffer for 30 seconds, then dipped into a solution of […] human Gal3-His in 10 mM NaOAc buffer, pH 5 until binding was saturated, and quenched in 1 M ethanolamine pH 8.5 for 300 seconds. Following Gal3-His loading, tips were dipped in 20 μg/mL saturating antibody, then successively dipped into 5 μg/mL competing antibody.
# The epitope binning assay was done in a sandwich format on the high-throughput SPR-based Carterra LSA unit (CarterraBio, Salt Lake City, Utah). First, the purified antibodies were diluted to 10 μg/ml concentration in 10 mM NaOAc (pH 5.0) and then were covalently coupled via amine group to HC200M chip activated by EDC and S-NHS to immobilize antibodies to different positions of a 384-spot array. One hundred thirty-eight binning cycles were run on the array of immobilized antibodies. In each cycle, first, human Gal3 (AcroBio GA3-H5129) was injected over the entire array to bind to different antibodies (primary antibody), followed by one antibody (secondary antibody) selected among the panel of 150 anti-GAL3 antibodies tested. At the end of each cycle, the array was regenerated by 10 mM Glycine (pH 2.0) to remove bound antigen and secondary antibody from the array. The data analysis was done using the Epitope software by CarterraBio.
# [2] = target: T2, interaction of Gal3 and INSR (Homo sapiens, UniProt P17931); assay: ELISA of blocking of Gal3-INSR association by Gal3-binding antibodies
# T2 construct: 6-histidine tag (linker-spaced); purchased Acro Biosystems (Gal3); Sino Biological (INSR) GA3-H5129; 11086-H08H
# T2 sequence (P17931 2-250 limits assumed): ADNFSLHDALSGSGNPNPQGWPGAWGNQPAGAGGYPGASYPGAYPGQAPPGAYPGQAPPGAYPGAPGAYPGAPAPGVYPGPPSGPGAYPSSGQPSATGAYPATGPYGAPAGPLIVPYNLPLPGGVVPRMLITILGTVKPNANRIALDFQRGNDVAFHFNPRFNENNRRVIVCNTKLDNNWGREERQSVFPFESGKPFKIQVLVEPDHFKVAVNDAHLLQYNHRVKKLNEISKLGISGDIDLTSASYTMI
# Description: Positively scoring wells were evaluated for the ability to block association of Gal3 and INSR. To identify Gal3-targeted antibodies with the ability to block the interaction of Gal3 and INSR, purified Gal3 and INSR proteins were incubated in the presence of Gal3-immunization hybridoma supernatants described above, or without antibody, and protein interaction was evaluated by ELISA. Human Galectin-3 protein (Acro Biosystems, GA3-H5129) was diluted in PBS (Corning, 21-030-CM) to a concentration of 3 μg/ml and added to the wells of a 96-well ELISA plate (Thermo Fisher, 44-2404-21). After incubating the plate at 4° C. overnight, the plate was washed three times with PBST (PBS with 0.05% Tween 20 [VWR, 0777]). The plate was then blocked for an hour with 2% BSA (EMD Millipore, 126609) in PBST at room temperature with gentle rocking. Thereafter, the 2% BSA in PBST was discarded and antibody or inhibitor (3-fold dilutions beginning at 20 μg/ml, 60 μg/ml, or 180 μM) in 2% BSA in PBST was added to the wells. Afterwards, 6 μg/ml of human Insulin Receptor (Sino Biological, 11086-H08H) in 2% BSA in PBST was added to the antibody or inhibitor in the wells in a 1:1 ratio. The plate was incubated for an hour at room temperature with gentle rocking. Thereafter, the plate was washed three times with PBST, and 0.3 μg/ml of human INSR Biotinylated Antibody (R&D Systems, BAF1544) in 2% BSA in PBST was added to the wells. The plate was incubated for an hour with gentle rocking and then washed three times with PBST. Avidin-HRP (1:2000) was then added to the wells. The plate was incubated at room temperature for an hour with gentle rocking and then washed three times with PBST. TMB substrate (Thermo Scientific, 34029) was then added to each well. The reaction was stopped with 1M HCl (JT Baker, 5620-02) and read using a plate reader (Molecular Devices) at absorbance of 450 nm.
# [3] = tested on: Gal3 peptides (SEQ ID NOs: 3-26); assay: Gal3 peptide library binding ELISA (epitope mapping); set-up: species or system human
# Description: (§1) To identify the epitopes to which Gal3 antibodies with and without Gal3-INSR blocking activity bound, a library of 24 amino acid peptides representing portions of Gal3, depicted in FIG. 27, was produced and the ability of each peptide to bind Gal3 antibodies was evaluated by ELISA. At least 2 μg/ml of hGal3 peptide in 50 μl of PBS or 0.1 μg/ml of full-length human Gal3 protein (GenScript) and human Galectin-3 protein (Acro Biosystems, GA3-H5129) were diluted in PBS (Corning, 21-030-CM) to concentrations of at least 2 μg/ml or 0.1 μg/ml, respectively, and added to the wells of a 96-well ELISA plate (Thermo Fisher, 44-2404-21). After incubating the plate at 4° C. overnight, the plate was washed three times with PBST (PBS with 0.05% Tween 20 [VWR, 0777]). The plate was then blocked for an hour with 2% BSA (EMD Millipore, 126609) in PBST at room temperature with gentle rocking. Thereafter, the 2% BSA in PBST was discarded and human Galectin-3 hybridoma supernatants or antibodies were diluted in 2% BSA in PBST to concentrations of at least 0.1 μg/ml and added to the wells. The plate was incubated for an hour at room temperature with gentle rocking and then washed three times with PBST. Afterwards, Goat Anti-Mouse IgG-HRP (Jackson ImmunoResearch, 115-036-1461) or Goat Anti-Rat IgG HRP (Abcam, ab205720) diluted in 2% BSA in PBST (1:4000) were added to the wells. The plate was incubated for 30 minutes to 1 hour at room temperature with gentle rocking and then washed three times with PBST. TMB substrate (Thermo Scientific, 34029) was then added to each well. The reaction was stopped with 1M HCl (JT Baker, 5620-02) and read using a plate reader (Molecular Devices) at absorbance of 450 nm.
# (§2) Human Gal3 peptides (LifeTein, custom order) and human Gal3 proteins (R&D Systems, 8259-GA; TrueBinding, QCB200349) were diluted in PBS (Corning, 21-030-CM) to concentrations of at least 100 μg/mL (peptides) or 1 μg/mL (proteins), and added to the wells of several 96-well ELISA plates (Thermo Fisher, 44-2404-21). After incubating the plates at 4° C. overnight, the plates were washed three times with PBST (PBS with 0.05% Tween 20 [VWR, 0777]). The plates were then blocked for an hour with 2% BSA (EMD Millipore, 126609) in PBST at room temperature with gentle rocking. Thereafter, the 2% BSA in PBST was discarded and Gal3-binding antibodies (reformatted hIgG4 [S228P]) were diluted in 2% BSA in PBST to concentrations of 5 μg/mL and added to the wells. The plates were incubated for an hour at room temperature with gentle rocking and then washed three times with PBST. Afterwards, Peroxidase AffiniPure F(ab′)2 Fragment Goat Anti-Human IgG (H+L) polyclonal antibody (Jackson ImmunoResearch, 109-036-003), was diluted in 2% BSA in PBST (1:4000) and added to the wells. The plates were incubated for 1 hour at room temperature with gentle rocking and then washed three times with PBST. TMB substrate (Thermo Scientific, 34029) was then added to each well. The reaction was stopped with 1M HCl (JT Baker, 5620-02) and read using a plate reader (Molecular Devices) at absorbance of 450 nm.
# [4] = target: T3, Gal3 peptides (SEQ ID NOs: 3-26) (Homo sapiens, UniProt P17931); assay: as above; conditions: for binding to Gal3 Peptide 6: Peptide 6 (SEQ ID NO: 8), amino acids 51-70 of Gal3; for binding to Gal3 Peptide 1: Peptide 1 (SEQ ID NO: 3), amino acids 1-20 of Gal3; for binding to Gal3 Peptide 7: Peptide 7 (SEQ ID NO: 9), amino acids 61-80 of Gal3
# T3 construct: a library of 24 amino acid peptides representing portions of Gal3; purchased LifeTein custom order
# Description: as §1, §2
Molecule,epitope bin (competitive binding to Gal3) [1],Gal3-INSR blocking activity (in words) [2],binding to Gal3 Peptide 6 [4],other results
B1,bin 10,poorly block,–,–
B2,–,–,bind and bound,binding to Gal3 Peptide 17 ([3]; Peptide 17 (SEQ ID NO: 19)): bind
B3,–,–,–,binding to Gal3 Peptide 8 ([3]; Peptide 8 (SEQ ID NO: 10)): bind; binding to Gal3 Peptide 1 [4]: bind and bound; binding to Gal3 Peptide 7 [4]: bind and bound
B4,–,poorly block,–,–
B5,bin 3,–,bind and bound,binding to Gal3 Peptide 1 [4]: bound; binding to Gal3 Peptide 7 [4]: bound
B6,bin 3,–,bind and bound,–
B7,–,poorly block,–,–
